According to patent publication US7183387 (Genentech, dated 2007):

T1: human FcγRIIA-Arg131 α subunit extracellular domain-His6-GST fusion (human, UniProt P12318 34-217)
T1 construct: extracellular domain; also called FcγRIIA-R131; not shown: glutathione S transferase (GST)
T1 sequence: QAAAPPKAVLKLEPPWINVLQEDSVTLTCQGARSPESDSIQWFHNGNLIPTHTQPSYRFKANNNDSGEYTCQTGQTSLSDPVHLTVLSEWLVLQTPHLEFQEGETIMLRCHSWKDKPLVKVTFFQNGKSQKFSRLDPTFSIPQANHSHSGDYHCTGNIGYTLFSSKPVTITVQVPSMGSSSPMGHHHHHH

T2: human FcγRIIB α subunit extracellular domain-His6-GST fusion (human, UniProt P31994 43-217)
T2 construct: extracellular domain; also called CD32; not shown: glutathione S transferase (GST)
T2 sequence: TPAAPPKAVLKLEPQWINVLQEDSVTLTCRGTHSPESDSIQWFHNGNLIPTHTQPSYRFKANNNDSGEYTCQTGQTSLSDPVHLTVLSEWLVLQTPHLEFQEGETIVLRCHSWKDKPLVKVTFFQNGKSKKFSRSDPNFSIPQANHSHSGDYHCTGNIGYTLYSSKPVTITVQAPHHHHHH

T3: human FcγRIIA-R131 α subunit extracellular domain-6His-GST fusion (human, UniProt P12318 34-217)
T3 construct: also called FcγRIIA-Arg131; not shown: glutathione S-transferase (GST)
T3 sequence: T1 sequence

T4: human FcγRIIB α subunit extracellular domain-6His-GST fusion (human, UniProt P31994 43-217)
T4 construct: not shown: glutathione S-transferase (GST)
T4 sequence: T2 sequence

B1: anti-IgE E27 IgG1 Lys322Ala (antibody)
heavy: not shown
light: DIQLTQSPSSLSASVGDRVTITCRASKPVDGEGDSYLNWYQQKPGKAPKLLIYAASYLESGVPSRFSGSGSGTDFTLTISSLQPEDFATYYCQQSHEDPYTFGQGTKVEIKRTVAAPSVFIFPPSDEQLKSGTASVVCLLNNFYPREAKVQWKVDNALQSGNSQESVTEQDSKDSTYSLSSTLTLSKADYEKHKVYACEVTHQGLSSPVTKSFNRGEC
notes: also called K322A
B2: anti-IgE E27 IgG1 Glu380Ala (antibody)
heavy: not shown
light: B1 light
B3: anti-IgE E27 IgG1 Pro331Ala (antibody)
heavy: not shown
light: B1 light
notes: also called P331A
B4: anti-IgE E27 IgG1 Asn434Ala (antibody)
heavy: not shown
light: B1 light
B5: anti-IgE E27 IgG1 Thr307Ala/Glu380Ala/Asn434Ala (antibody)
heavy: EVQLVESGGGLVQPGGSLRLSCAVSGYSITSGYSWNWIRQAPGKGLEWVASIKYSGETKYNPSVKGRITISRDDSKNTFYLQMNSLRAEDTAVYYCARGSHYFGHWHFAVWGQGTLVTVSSASTKGPSVFPLAPSSKSTSGGTAALGCLVKDYFPEPVTVSWNSGALTSGVHTFPAVLQSSGLYSLSSVVTVPSSSLGTQTYICNVNHKPSNTKVDKKVEPKSCDKTHTCPPCPAPELLGGPSVFLFPPKPKDTLMISRTPEVTCVVVDVSHEDPEVKFNWYVDGVEVHNAKTKPREEQYNSTYRVVSVLAVLHQDWLNGKEYKCKVSNKALPAPIEKTISKAKGQPREPQVYTLPPSREEMTKNQVSLTCLVKGFYPSDIAVAWESNGQPENNYKTTPPVLDSDGSFFLYSKLTVDKSRWQQGNVFSCSVMHEALHAHYTQKSLSLSPGK
light: B1 light
B6: anti-IgE E27 IgG1 Glu380Ala/Asn434Ala (antibody)
heavy: not shown
light: B1 light
B7: anti-IgE E27 IgG1 His435Ala (antibody)
heavy: not shown
light: B1 light
B8: recombinant humanized anti-IgE E27 IgG1 (parent antibody) (antibody)
heavy: not shown
light: B1 light
notes: non-A allotype IgG1 Fc; E27 and all its variants were tested as monomers on FcRn and FcγRI and as hexamers with human IgE (3 E27 : 3 IgE) on FcγRIIA, FcγRIIB and FcγRIIIA; also called wt; E27 wildtype
B9: anti-IgE E27 IgG1 K320A (antibody)
heavy: not shown
light: B1 light
B10: anti-IgE E27 IgG1 E318A (antibody)
heavy: not shown
light: B1 light
notes: also called Glu318Ala
B11: E27 IgG1 variant E380(405)A/L309(328)A (antibody)
heavy: not shown
light: B1 light
notes: also called IG2 271
B12: E27 IgG1 variant H434(465)A/K288(305)A (antibody)
heavy: not shown
light: B1 light
notes: also called IG2 272; Lys288Ala/Asn434Ala
B13: E27 IgG1 variant E380(405)A/N434(465)A (antibody)
heavy: not shown
light: B1 light
notes: also called IG2 269
B14: E27 IgG1 variant E380(405)A/N434(465)A/T307(326)A (antibody)
heavy: B5 heavy
light: B1 light
notes: also called IG2 270

biological target: T1, human FcγRIIA-Arg131 α subunit …; test: hexamer ELISA

In order of rising “ratio to native IgG1” value:
1. B4  0.96 ratio
2. B1  1.17 ratio
3. B2  1.18 ratio
4. B3  1.29 ratio

biological target: T2, human FcγRIIB α subunit extracellular …; test: hexamer ELISA

In order of rising “ratio to native IgG1” value:
1. B4  0.97 ratio
2. B2  1.07 ratio
3. B1  1.28 ratio
4. B3  1.34 ratio

biological target: T5, human FcγRIIIA-Phe158 α subunit extracellular domain-His6-GST fusion (human, UniProt P08637 17-208); test: hexamer ELISA
T5 construct: extracellular domain; also called FcγRIIIA-F158; CD16; not shown: glutathione S transferase (GST)
T5 sequence (P08637 other isoform, or with tags, fused parts or gaps): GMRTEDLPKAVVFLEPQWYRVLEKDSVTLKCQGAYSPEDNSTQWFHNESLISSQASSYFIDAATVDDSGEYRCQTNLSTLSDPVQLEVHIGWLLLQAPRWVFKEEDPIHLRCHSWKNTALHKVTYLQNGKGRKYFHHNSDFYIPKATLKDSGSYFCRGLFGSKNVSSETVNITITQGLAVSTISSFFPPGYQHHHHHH

In order of falling “ratio to native IgG1” value:
1. B3  1.08 ratio
2. B2  0.92 ratio
3. B4  0.77 ratio
4. B1  0.62 ratio

biological target: T6, human neonatal Fc receptor (FcRn), biotinylated (human, UniProt P55899 24-297; P61769 21-119, biotinylated (biotin-X-NHS)); test: FcRn ELISA, pH 6.0;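 on ratio to native IgG1: Streptavidin-captured FcRn plates, IgG variants titrated 2 h at pH 6.0, peroxidase anti-human IgG read at 450 nm, variant over standard concentration at the standard curve mid-point absorbance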
T6 construct: captured on streptavidin plates
T6 sequence (P55899 24-297 limits assumed, chain 1 of 2): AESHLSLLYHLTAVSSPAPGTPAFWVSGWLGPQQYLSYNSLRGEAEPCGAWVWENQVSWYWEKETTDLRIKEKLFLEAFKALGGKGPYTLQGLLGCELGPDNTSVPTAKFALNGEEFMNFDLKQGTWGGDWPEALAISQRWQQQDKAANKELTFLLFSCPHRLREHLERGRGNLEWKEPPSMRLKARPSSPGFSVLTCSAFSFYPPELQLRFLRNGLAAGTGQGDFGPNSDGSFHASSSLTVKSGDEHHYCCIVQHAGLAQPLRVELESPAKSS
T6 sequence (P61769 21-119 limits assumed, chain 2 of 2): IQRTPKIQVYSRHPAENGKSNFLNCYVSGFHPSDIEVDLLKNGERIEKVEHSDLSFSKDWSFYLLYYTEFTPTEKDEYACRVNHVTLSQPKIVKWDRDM
Protocol: (§1) FcRn Binding ELISA: For measuring FcRn binding activity of IgG variants, ELISA plates were coated with 2 µg/ml streptavidin (Zymed, South San Francisco) in 50 mM carbonate buffer, pH 9.6, at 4° C. overnight and blocked with PBS-0.5% BSA, pH 7.2 at room temperature for one hour. Biotinylated FcRn (prepared using biotin-X-NHS from Research Organics, Cleveland, Ohio and used at 1–2 µg/ml) in PBS-0.5% BSA, 0.05% polysorbate 20, pH 7.2, was added to the plate and incubated for one hour. Two fold serial dilutions of IgG standard (1.6–100 ng/ml) or variants in PBS-0.5% BSA, 0.05% polysorbate 20, pH 6.0, were added to the plate and incubated for two hours. Bound IgG was detected using peroxidase labeled goat F(ab')_2 anti-human IgG F(ab')_2 in the above pH 6.0 buffer (Jackson ImmunoResearch, West Grove, Pa.) followed by 3,3',5,5'-tetramethyl benzidine (Kirgaard & Perry Laboratories) as the substrate. Plates were washed between steps with PBS-0.05% TWEEN 20® at either pH 7.2 or 6.0. Absorbance was read at 450 nm on a Vmax plate reader (Molecular Devices, Menlo Park, Calif.). Titration curves were fit with a four-parameter nonlinear regression curve-fitting program (KaleidaGraph, Synergy software, Reading, Pa.). Concentrations of IgG variants corresponding to the mid-point absorbance of the titration curve of the standard were calculated and then divided by the concentration of the standard corresponding to the mid-point absorbance of the standard titration curve.

First: B2
Second: B5
The “fold better binding than native IgG1” value of the first is lower: 2 fold for the first, 13 fold for the second.

Compared with B6, B4 is lower in “fold better binding than native IgG1” value: > 8 fold for the first, 3.5 fold for the second.

biological target: T6, human neonatal Fc receptor (FcRn), …; test: FcRn ELISA, pH 6.0; remark: another data set of the same source

Going from B1 to B7, the “ratio to native IgG1” value falls from 0.98 ratio to < 0.1 ratio.

Compared with B2, B3 is lower in “ratio to native IgG1” value: 2.19 ratio for the first, 0.85 ratio for the second.

In the case of B4, the “ratio to native IgG1” value is reported as 3.46 ratio.

biological target: T7, human FcγRIA α subunit extracellular domain-His6-GST fusion (human, UniProt P12314 16-292); test: FcγRI ELISA, E27 background
T7 construct: extracellular domain; also called GST-FcγRIA; CD64; not shown: glutathione S transferase (GST)
T7 sequence (P12314 other isoform, or with tags, fused parts or gaps): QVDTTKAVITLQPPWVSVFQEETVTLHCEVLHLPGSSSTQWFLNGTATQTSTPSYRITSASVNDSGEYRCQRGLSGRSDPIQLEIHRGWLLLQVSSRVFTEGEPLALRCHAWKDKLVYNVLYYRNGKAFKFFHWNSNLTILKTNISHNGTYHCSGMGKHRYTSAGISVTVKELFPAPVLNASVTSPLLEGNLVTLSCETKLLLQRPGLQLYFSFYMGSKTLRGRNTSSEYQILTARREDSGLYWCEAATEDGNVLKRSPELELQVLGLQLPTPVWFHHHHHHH

In order of falling “percentage of the wild type” value:
1. B9  102%
2. B8  100%
3. B10  93%
4. B1  90%
5. B3  74%

biological target: T1, human FcγRIIA-Arg131 α subunit …; test: hexamer ELISA (row shifted)

B7 was tested, and the “ratio to native IgG1” value was 0.77 ratio.

biological target: T2, human FcγRIIB α subunit extracellular …; test: hexamer ELISA (row shifted)

For B7, the “ratio to native IgG1” value was 0.72 ratio.

biological target: T5, human FcγRIIIA-Phe158 α subunit …; test: hexamer ELISA (row shifted)

With B7 the “ratio to native IgG1” value was 0.78 ratio.

biological target: T1, human FcγRIIA-Arg131 α subunit …; test: immune complex ELISA, E27 background

In order of falling “percentage of the wild type” value:
1. B10  113%
2. B1  109%
3. B8  100%
4. B9  94%
5. B3  86%

biological target: T2, human FcγRIIB α subunit extracellular …; test: immune complex ELISA, E27 background

In order of falling “percentage of the wild type” value:
1. B10  106%
2. B1  101%
3. B8  100%
4. B9  83%
5. B3  58%

biological target: T5, human FcγRIIIA-Phe158 α subunit …; test: immune complex ELISA, E27 background

In order of falling “percentage of the wild type” value:
1. B10  104%
2. B8  100%
3. B1  90%
4. B3  73%
5. B9  72%

biological target: T6, human neonatal Fc receptor (FcRn), …; test: FcRn ELISA (E27 background by paragraph 363)

B8: binds.
B9: binds.
B10: binds.

biological target: T7, human FcγRIA α subunit extracellular …; test: FcγRI ELISA and THP-1 cells, averaged

In order of falling “ratio to native IgG1” value:
1. B2  1.04 ratio
2. B3  1.01 ratio
3. B4  1 ratio
4. B1  0.94 ratio

biological target: T3, human FcγRIIA-R131 α subunit …; test: ELISA, IgG:IgE hexamers on receptor-GST

In order of falling “ratio to native IgG1” value:
1. B13  1.02
2. B14  0.99
3. B11  0.98
4. B12  0.94

biological target: T4, human FcγRIIB α subunit extracellular …; test: ELISA, IgG:IgE hexamers on receptor-GST

In order of rising “ratio to native IgG1” value:
1. B12  0.96
2. B14  0.99
3. B11  1.04
4. B13  1.05

biological target: T8, human FcγRIIIA-F158 α subunit extracellular domain-6His-GST fusion (human, UniProt P08637 17-208); test: ELISA, IgG:IgE hexamers on receptor-GST
T8 construct: also called FcγRIIIA-Phe158; not shown: glutathione S-transferase (GST)
T8 sequence (P08637 other isoform, or with tags, fused parts or gaps, form in doubt): as the sequence (P08637 other isoform, or with tags, fused parts or gaps) above

In order of rising “ratio to native IgG1” value:
1. B12  0.88
2. B11  0.92
3. B14  0.96
4. B13  1.02

biological target: T9, human FcRn, biotinylated (human, UniProt P55899 24-297; P61769 21-119, biotinylated (biotin-X-NHS)); test: ELISA, biotin-FcRn on streptavidin, pH 6.0
T9 construct: Captured on streptavidin plates; IgG added at pH 6.0; also called neonatal Fc receptor
T9 sequence (P55899 24-297 limits assumed, chain 1 of 2): as the sequence (P55899 24-297 limits assumed, chain 1 of 2) above
T9 sequence (P61769 21-119 limits assumed, chain 2 of 2): as the sequence (P61769 21-119 limits assumed, chain 2 of 2) above
Protocol: as §1

In order of falling “ratio to native IgG1” value:
1. B14  11.8
2. B13  8
3. B12  2.9
4. B11  0.9

biological target: T7, human FcγRIA α subunit extracellular …; test: FcγRI ELISA and THP-1 cells, averaged (row shifted)

With B7 the “ratio to native IgG1” value was 1.25 ratio.
